Laboratory results published in patent publication US20190248888A1, “METHODS OF LOWERING BLOOD GLUCOSE LEVELS” (Regeneron Pharmaceuticals, Inc., priority 2016, published 2019).

Tested on: isolated pancreatic islets from mice
Assay: RNAseq gene expression in isolated pancreatic islets of GCGR antibody treated mice (Table 5)
Type: in vivo, mouse
Conditions: isolated islets, 10 mg/kg, 21 days
Method: Mouse islets were isolated by density gradient separation after perfusing pancreas with Liberase TL (Roche, Indianapolis) through the common bile duct. Following a 13 min digestion at 37° C., the pancreas solution was washed and filtered through a 400-μm wire mesh strainer and islets were separated by Histopaque gradient centrifugation (Sigma-Aldrich). Isolated islets were cultured overnight in RPMI-1640 medium supplemented with 10% (v/v) FBS, 10 mM HEPES, 50 μM β-mercaptoethanol, 1.0 mM sodium-pyruvate, 100 U/mL penicillin and 100 μg/mL streptomycin at 37° C. with a 5% CO2 in air atmosphere.
Total RNA was purified from all samples using MagMAX™-96 for Microarrays Total RNA Isolation Kit (Ambion by Life Technologies) according to manufacturer's specifications. Genomic DNA was removed using MagMAX™Turbo™DNase Buffer and TURBO DNase from the MagMAX kit listed above (Ambion by Life Technologies). mRNA was purified from total RNA using Dynabeads® mRNA Purification Kit (Invitrogen). Strand-specific RNA-seq libraries were prepared using ScriptSeq™ mRNA-Seq Library Preparation Kit (Epicentre). Twelve-cycle PCR was performed to amplify libraries. Sequencing was performed on Illumina HiSeq®2000 (Illumina) by multiplexed single-read run with 33 cycles.
Raw sequence data (BCL files) were converted to FASTQ format via Illumina Casava 1.8.2. Reads were decoded based on their barcodes and read quality was evaluated with FastQC (http://www.bioinformatics.babraham.ac.uk/projects/fastqc/). Reads were mapped to the mouse transcriptome (NCBI GRCh37) using CLC Genomics Workbench Version 7.0 (CLCbio) or TopHat2 (Version 2.0.10) allowing two mismatches. Reads mapped to the exons of a gene were summed at the gene level. To identify differentially expressed genes, the statistical significance (p-value) of the differential expressions was assessed with DESeq package (version 1.6 or 2.0). […]

B1: α-GCGR: potent monoclonal GCGR blocking antibody, HCVR/LCVR SEQ ID NOs: 86/88 (antibody, V domains shown)
VH: EVQLVESGGGLVQPGGSLRLSCAASGFTFSNYLMNWVRQAPGKGLEWLANIQEDGIEKYYVDSVKGRFTISRDNAKNSLYLQMNSLRAEDTAVYYCAREPSHYDILTGYDYYYGMDVWGQGTTVTVS
VL: DIQMTQSPSSLSASVGDRVTITCRASQGIRNDLGWYQQKPGKAPKRLIYAASSLQSGVPSRFSGSGSGTEFILTVSSLQPEDFATYYCLQYNSNPFTFGPGTKVDIK
- 1700086L19Rik RPKM (gene 1700086L19Rik): 119.24 RPKM
- 1810011O10Rik RPKM (gene 1810011O10Rik): 5.88 RPKM
- 1810041L15Rik RPKM (gene 1810041L15Rik): 3.14 RPKM
- 4930539E08Rik RPKM (gene 4930539E08Rik): 5.64 RPKM
- 9030617O03Rik RPKM (gene 9030617O03Rik): 5.31 RPKM
- AW551984 RPKM (gene AW551984): 5.27 RPKM
- Acta1 RPKM (gene Acta1): 1.05 RPKM
- Agpat4 RPKM (gene Agpat4): 4.89 RPKM
- Agt RPKM (gene Agt): 22.33 RPKM
- Ang RPKM (gene Ang): 69.38 RPKM
- Ano1 RPKM (gene Ano1): 1.26 RPKM
- Anxa3 RPKM (gene Anxa3): 11.67 RPKM
- Anxa13 RPKM (gene Anxa13): 0.65 RPKM
- Apoa2 RPKM (gene Apoa2): 10.76 RPKM
- Apod RPKM (gene Apod): 2.75 RPKM
- Apol7a RPKM (gene Apol7a): 0.28 RPKM
- Arg1 RPKM (gene Arg1): 59.62 RPKM
- Arx RPKM (gene Arx): 6.42 RPKM
- Asb11 RPKM (gene Asb11): 1.00 RPKM
- Avpr1b RPKM (gene Avpr1b): 4.45 RPKM
- Basp1 RPKM (gene Basp1): 11.31 RPKM
- Blnk RPKM (gene Blnk): 3.87 RPKM
- Bok RPKM (gene Bok): 1.31 RPKM
- Car9 RPKM (gene Car9): 0.79 RPKM
- Cdc42ep1 RPKM (gene Cdc42ep1): 1.77 RPKM
- Clec2d RPKM (gene Clec2d): 9.10 RPKM
- Clic6 RPKM (gene Clic6): 0.26 RPKM
- Clu RPKM (gene Clu): 481.69 RPKM
- Cnih2 RPKM (gene Cnih2): 1.98 RPKM
- Cobl RPKM (gene Cobl): 2.27 RPKM
- Ctse RPKM (gene Ctse): 1.73 RPKM
- Dbpht2 RPKM (gene Dbpht2): 27.59 RPKM
- Dmbt1 RPKM (gene Dmbt1): 10.80 RPKM
- Dpp6 RPKM (gene Dpp6): 8.00 RPKM
- Drc1 RPKM (gene Drc1): 4.67 RPKM
- Eda2r RPKM (gene Eda2r): 1.98 RPKM
- Eef1a2 RPKM (gene Eef1a2): 35.85 RPKM
- Ehf RPKM (gene Ehf): 10.90 RPKM
- Etv1 RPKM (gene Etv1): 33.99 RPKM
- F5 RPKM (gene F5): 1.71 RPKM
- Ffar4 RPKM (gene Ffar4): 5.88 RPKM
- Fgd3 RPKM (gene Fgd3): 0.83 RPKM
- Fgl2 RPKM (gene Fgl2): 37.91 RPKM
- Gamt RPKM (gene Gamt): 0.58 RPKM
- Gbp8 RPKM (gene Gbp8): 7.39 RPKM
- Gbp9 RPKM (gene Gbp9): 4.03 RPKM
- Gc RPKM (gene Gc): 153.00 RPKM
- Gcg RPKM (gene Gcg): 63254.16 RPKM
- Gcnt4 RPKM (gene Gcnt4): 3.02 RPKM
- Gfra1 RPKM (gene Gfra1): 3.43 RPKM
- Gfra3 RPKM (gene Gfra3): 8.18 RPKM
- Gm609 RPKM (gene Gm609): 6.28 RPKM
- Gm20554 RPKM (gene Gm20554): 2.33 RPKM
- Gng2 RPKM (gene Gng2): 7.35 RPKM
- Gpr119 RPKM (gene Gpr119): 15.35 RPKM
- Gpx3 RPKM (gene Gpx3): 638.48 RPKM
- Hspb1 RPKM (gene Hspb1): 10.32 RPKM
- Ifih1 RPKM (gene Ifih1): 10.68 RPKM
- Igsf23 RPKM (gene Igsf23): 0.40 RPKM
- Irx1 RPKM (gene Irx1): 5.96 RPKM
- Irx2 RPKM (gene Irx2): 8.92 RPKM
- Itgb4 RPKM (gene Itgb4): 1.65 RPKM
- Jchain RPKM (gene Jchain): 74.91 RPKM
- Kcna2 RPKM (gene Kcna2): 0.81 RPKM
- Kcnab3 RPKM (gene Kcnab3): 2.28 RPKM
- Kcnf1 RPKM (gene Kcnf1): 0.86 RPKM
- Kcnk3 RPKM (gene Kcnk3): 8.14 RPKM
- Klb RPKM (gene Klb): 4.59 RPKM
- Klhl13 RPKM (gene Klhl13): 5.34 RPKM
- Krt19 RPKM (gene Krt19): 26.52 RPKM
- Krt20 RPKM (gene Krt20): 0.65 RPKM
- Krt23 RPKM (gene Krt23): 2.17 RPKM
- Lamb3 RPKM (gene Lamb3): 1.16 RPKM
- Mafb RPKM (gene Mafb): 24.19 RPKM
- Mamld1 RPKM (gene Mamld1): 5.64 RPKM
- Mapk13 RPKM (gene Mapk13): 2.86 RPKM
- Matn2 RPKM (gene Matn2): 2.36 RPKM
- Ndst4 RPKM (gene Ndst4): 6.30 RPKM
- Necab2 RPKM (gene Necab2): 7.29 RPKM
- Nefm RPKM (gene Nefm): 6.35 RPKM
- Npr1 RPKM (gene Npr1): 3.07 RPKM
- Nptxr RPKM (gene Nptxr): 4.03 RPKM
- Nsg2 RPKM (gene Nsg2): 3.49 RPKM
- Ntn1 RPKM (gene Ntn1): 0.65 RPKM
- Nudt11 RPKM (gene Nudt11): 8.49 RPKM
- Nyap1 RPKM (gene Nyap1): 3.82 RPKM
- Ocrl RPKM (gene Ocrl): 37.04 RPKM
- Oit1 RPKM (gene Oit1): 4.78 RPKM
- Olfm3 RPKM (gene Olfm3): 3.59 RPKM
- Oxtr RPKM (gene Oxtr): 7.25 RPKM
- Pdk4 RPKM (gene Pdk4): 25.17 RPKM
- Peg10 RPKM (gene Peg10): 17.17 RPKM
- Pla2g2d RPKM (gene Pla2g2d): 5.69 RPKM
- Ptf1a RPKM (gene Ptf1a): 0.52 RPKM
- Ptprd RPKM (gene Ptprd): 4.67 RPKM
- Ptprg RPKM (gene Ptprg): 3.12 RPKM
- Rasd1 RPKM (gene Rasd1): 10.12 RPKM
- Rbms3 RPKM (gene Rbms3): 2.38 RPKM
- Rbp4 RPKM (gene Rbp4): 210.71 RPKM
- Rcn1 RPKM (gene Rcn1): 12.75 RPKM
- Rragb RPKM (gene Rragb): 33.15 RPKM
- Sema3e RPKM (gene Sema3e): 2.28 RPKM
- Serpinb6b RPKM (gene Serpinb6b): 1.59 RPKM
- Serpine2 RPKM (gene Serpine2): 10.10 RPKM
- Serping1 RPKM (gene Serping1): 82.99 RPKM
- Sftpd RPKM (gene Sftpd): 4.65 RPKM
- Sgce RPKM (gene Sgce): 10.55 RPKM
- Sh2d4a RPKM (gene Sh2d4a): 0.65 RPKM
- Sh3bgr RPKM (gene Sh3bgr): 3.39 RPKM
- Slc38a3 RPKM (gene Slc38a3): 0.79 RPKM
- Slc38a5 RPKM (gene Slc38a5): 52.26 RPKM
- Smarca1 RPKM (gene Smarca1): 15.49 RPKM
- Spns2 RPKM (gene Spns2): 0.98 RPKM
- St8sia1 RPKM (gene St8sia1): 2.35 RPKM
- Syt16 RPKM (gene Syt16): 2.26 RPKM
- Tead2 RPKM (gene Tead2): 2.17 RPKM
- Tesc RPKM (gene Tesc): 4.72 RPKM
- Tmsb15b1 RPKM (gene Tmsb15b1): 28.28 RPKM
- Tspan1 RPKM (gene Tspan1): 1.40 RPKM
- Ttr RPKM (gene Ttr): 5356.49 RPKM
- Vnn1 RPKM (gene Vnn1): 0.42 RPKM
- Vwde RPKM (gene Vwde): 5.37 RPKM
- Wfdc16 RPKM (gene Wfdc16): 5.87 RPKM
- Wnk3 RPKM (gene Wnk3): 9.33 RPKM
